The RNAGym collection of RNA variant scans (doi:10.1093/nar/gkz1192)

B1: CPEB3 Ribozyme (parent)
chain: UAACAGGGGGCCACAGCAGAAGCGUUCACGUCGCAGCCCCUGUCAGAUUCUGGUGAAUCUGCGAAUUCUGCUGUAUAUCUC

Variants of: B1
Assay: self-cleavage, relative activity (ratio to wild type); higher = more cleavage; in vitro, sequencing
Outline: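 Libraries of CPEB3 self-cleaving ribozyme mutants came from rounds of error-prone PCR and carried barcodes, which DNA sequencing matched to variants. In vitro transcription used T7 RNA polymerase at 37°C for 5 hours, with a further 15 min in DNase I before EDTA stopped the reaction; the ribozymes cleaved during both steps. The RNA was reverse transcribed with template switching and sequenced on Illumina. Relative activity is the cleaved/total read fraction of a variant divided by that of the unmutated ribozyme, averaged over three batches with at least 5 reads.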

Variant | self-cleavage
UAACAGGGGGCCACAGCAGACGCGUUCACGUCGCAGCCCCUGUCGGAUUCUGGUGAAUCUGCGAAUUCUGCUGUAUAUCUC [A21C A45G] | 0.41
UAACAGGGGGCCACAGCAGUAGCGUUCACGUCGCAGCCCCUGUCAGAUUCAGGUGAAUCUGCGAAUUCUGCUGUAUAUCUC [A20U U51A] | 0.25
UAACAGGGGGCCACAGCAGUAGCGUUCACGUCGCAGCCCCUGUCAGAUUCCGGUGAAUCUGCGAAUUCUGCUGUAUAUCUC [A20U U51C] | 0.32
UAACAGGGGGCCACAGCAGUAGCAUUCACGUCGCAGCCCCUGUCAGAUUCUGGUGAAUCUGCGAAUUCUGCUGUAUAUCUC [A20U G24A] | 0.09
UAACAGGGGGCCACAGCAGUAGCUUUCACGUCGCAGCCCCUGUCAGAUUCUGGUGAAUCUGCGAAUUCUGCUGUAUAUCUC [A20U G24U] | 0.08
UAACAGGGGGCCACAGCAGUAGCCUUCACGUCGCAGCCCCUGUCAGAUUCUGGUGAAUCUGCGAAUUCUGCUGUAUAUCUC [A20U G24C] | 0.4
UAACAGGGGGCCACAGCAGUAGCGUUCACGUCGCAGCCCCUGUCAUAUUCUGGUGAAUCUGCGAAUUCUGCUGUAUAUCUC [A20U G46U] | 0.18
UAACAGGGGGCCACAGCAGUAGCGUUCACGUCGCAGCCCCUGUCAAAUUCUGGUGAAUCUGCGAAUUCUGCUGUAUAUCUC [A20U G46A] | 0.07
UAACAGGGGGCCACAGCAGUAGCGUUCACGUCGCAGCCCCUGUCAGAUUCUGGUGAAUCAGCGAAUUCUGCUGUAUAUCUC [A20U U60A] | 0.41
UAACAGGGGGCCACAGCAGUAGCGUUCACGUCGCAGCCCCUGUCAGAUUCUGGUGAAUCGGCGAAUUCUGCUGUAUAUCUC [A20U U60G] | 0.21
UAACAGGGGGCCACAGCAGUAGCGUUCACGUCGCAGCCCCUGUCAGAUUCUGGUGAAUCCGCGAAUUCUGCUGUAUAUCUC [A20U U60C] | 0.19
UAACAGGGGGCCACAGCAGUAGCGUUCACGUCGCAGCCCCUGUCAGAUUCUGGUGAAUCUGCGAAUUCUGCUGAAUAUCUC [A20U U74A] | 0.54
UAACAGGGGGCCACAGCAGUAGCGUUCACGUCGCAGCCCCUGUCAGAUUCUGGUGAAUCUGCGAAUUCUGCUGGAUAUCUC [A20U U74G] | 0.55
UAACAGGGGGCCACAGCAGUAGCGUUCACGUCGCAGCCCCUGUCAGAUUCUGGUGAAUCUGCGAAUUCUGCUGCAUAUCUC [A20U U74C] | 0.33
UAACAGGGGGCCACAGCAGUAGCGUUCACGUCGCAGCCCCUGUCAGAUUCUGGUGAAUCUGCGAAUUCUUCUGUAUAUCUC [A20U G70U] | 0.15
UAACAGGGGGCCACAGCAGUAGCGUUCACGUCGCAGCCCCUGUCAGAUUCUGGUGAAUCUGCGAAUUCUACUGUAUAUCUC [A20U G70A] | 0.17
UAACAGGGGGCCACAGCAGUAGCGUACACGUCGCAGCCCCUGUCAGAUUCUGGUGAAUCUGCGAAUUCUGCUGUAUAUCUC [A20U U26A] | 0.34
UAACAGGGGGCCACAGCAGUAGCGUCCACGUCGCAGCCCCUGUCAGAUUCUGGUGAAUCUGCGAAUUCUGCUGUAUAUCUC [A20U U26C] | 0.27
UAACAGGGGGCCACAGCAGUAGCGUUCACGUCGCAGCCCCUGUCAGAUUCUGAUGAAUCUGCGAAUUCUGCUGUAUAUCUC [A20U G53A] | 0.28
UAACAGGGGGCCACAGCAGUAGCGUUCACGUCGCAGCCCCUGUCAGAUUCUGGUGAACCUGCGAAUUCUGCUGUAUAUCUC [A20U U58C] | 0.28
UAACAGGGGGCCACAGCAGUAGCGUUCACGUCGCAGCCCCUGUCAGAUUCUGGUGAAUCUGCGAACUCUGCUGUAUAUCUC [A20U U66C] | 0.28
UAACAGGGGGCCACAGCAGUAGCGUUCACGUCGCAGCCCCUGUCAGAUUCUGGUGAAUCUGCGAAAUCUGCUGUAUAUCUC [A20U U66A] | 0.3
UAACAGGGGGCCACAGCAGUAGCGUUCACGUCGCAGCCCCUGUCAGAUUCUGGUGAAUCUGCGAAGUCUGCUGUAUAUCUC [A20U U66G] | 0.26

Variant | self-cleavage
UAACAGGGGGCCACAGCAGUAGCGUUCACUUCGCAGCCCCUGUCAGAUUCUGGUGAAUCUGCGAAUUCUGCUGUAUAUCUC [A20U G30U] | 0.24
UAACAGGGGGCCACAGCAGUAGCGUUCACGUCGCAGCCCCGGUCAGAUUCUGGUGAAUCUGCGAAUUCUGCUGUAUAUCUC [A20U U41G] | 0.23
UAACAGGGGGCCACAGCAGUAGCGUUCACGUCGCAGCCCCCGUCAGAUUCUGGUGAAUCUGCGAAUUCUGCUGUAUAUCUC [A20U U41C] | 0.28
UAACAGGGGGCCACAGCAGUAGCGUUCACGUCGCAGCCCCAGUCAGAUUCUGGUGAAUCUGCGAAUUCUGCUGUAUAUCUC [A20U U41A] | 0.3
UAACAGGGGGCCACAGCAGUAGCGUUCACGUCGCAGCCCCUGACAGAUUCUGGUGAAUCUGCGAAUUCUGCUGUAUAUCUC [A20U U43A] | 0.45
UAACAGGGGGCCACAGCAGUAGCGUUCACGUCGCAGCCCCUGCCAGAUUCUGGUGAAUCUGCGAAUUCUGCUGUAUAUCUC [A20U U43C] | 0.29
UAACAGGGGGCCACAGCAGUAGCGUUCACGUCGCAGCCCCUGUCAGAUUCUGGUGAAUCUGCGAAUUCUGCUGUAUAACUC [A20U U78A] | 0.43
UAACAGGGGGCCACAGCAGUAGCGUUCACGUCGCAGCCCCUGUCAGAUUCUGGUGAAUCUGCGAAUUCUGCUGUAUACCUC [A20U U78C] | 0.32
UAACAGGGGGCCACAGCAGUAGCGUUCACGUCGCAGCCCCUGUCAGAUUCUGGUGAAUCUGCGAAUUCUGCUGUAUAGCUC [A20U U78G] | 0.26
UAACAGGGGGCCACAGCAGUAGCGUUCACGGCGCAGCCCCUGUCAGAUUCUGGUGAAUCUGCGAAUUCUGCUGUAUAUCUC [A20U U31G] | 0.23
UAACAGGGGGCCACAGCAGUAGCGUUCACGCCGCAGCCCCUGUCAGAUUCUGGUGAAUCUGCGAAUUCUGCUGUAUAUCUC [A20U U31C] | 0.26
UAACAGGGGGCCACAGCAGUAGCGUUCACGACGCAGCCCCUGUCAGAUUCUGGUGAAUCUGCGAAUUCUGCUGUAUAUCUC [A20U U31A] | 0.24
UAACAGGGGGCCACAGCAGUAGCGUUCACGUCGCAGCCCCUGUCAGAUUCUGGUGAAUCUGCGAAUUCUGCUAUAUAUCUC [A20U G73A] | 0.67
UAACAGGGGGCCACAGCAGUAGCGUUCACGUCGCAGCCCCUGUCAGAUUCUGGUGAAUCUGCGAAUUCUGCGGUAUAUCUC [A20U U72G] | 0.13
UAACAGGGGGCCACAGCAGUAGCGUUCACGUCGCAGCCCCUGUCAGAUUCUGGUGAAUCUGCGAAUUCUGCCGUAUAUCUC [A20U U72C] | 0.34
UAACAGGGGGCCACAGCAGUAGCGUUCACGUCGCAGCCCCUGUCAGAUUCUGGUGAAUCUGCGAAUUCUGCAGUAUAUCUC [A20U U72A] | 0.25
UAACAGGGGGCCACAGCAGUAGCGUUCACGUCCCAGCCCCUGUCAGAUUCUGGUGAAUCUGCGAAUUCUGCUGUAUAUCUC [A20U G33C] | 0.15
UAACAGGGGGCCACAGCAGUAGCGUUCACGUCGCAGCCCCUGUCAGAUUCUGGUGAAUCUGCGAAUUCUGCUGUAAAUCUC [A20U U76A] | 0.25
UAACAGGGGGCCACAGCAGUAGCGUUCACGUCGCAGCCCCUGUCAGAUUCUGGUGAAUCUGCGAAUUCUGCUGUACAUCUC [A20U U76C] | 0.36
UAACAGGGGGCCACAGCAGACGCGUUCACGUCGCAGCCCCUGUCAGAUUCUGGUGAAUCUGCGAAUUCUGCUGUAUAUCUC [A21C] | 0.24
UAACAGGGGGCCACAGCAGUAGCGUUCACGUCGCAGCCCCUGUCAGAAUCUGGUGAAUCUGCGAAUUCUGCUGUAUAUCUC [A20U U48A] | 0.14
UAACAGGGGGCCACAGCAGUAGCGUUCACGUCGCAGCCCCUGUCAGACUCUGGUGAAUCUGCGAAUUCUGCUGUAUAUCUC [A20U U48C] | 0.29
UAACAGGGGGCCACAGCAGACGCGUUCACGUCGCGGCCCCUGUCAGAUUCUGGUGAAUCUGCGAAUUCUGCUGUAUAUCUC [A21C A35G] | 0.39

Variant | self-cleavage
UAACAGGGGGCCACAGCAGUAGCGUUCACGUCGCAGCCCCUUUCAGAUUCUGGUGAAUCUGCGAAUUCUGCUGUAUAUCUC [A20U G42U] | 0.13
UAACAGGGGGCCACAGCAGUAGCGUUCACGUCGCAGCCCCUAUCAGAUUCUGGUGAAUCUGCGAAUUCUGCUGUAUAUCUC [A20U G42A] | 0.64
UAACAGGGGGCCACAGCAGUAGCGUUCACGUCGCAGCCCCUGUCAGAUUCUGGUGAAUCUGCGAAUUCGGCUGUAUAUCUC [A20U U69G] | 0.21
UAACAGGGGGCCACAGCAGUAGCGUUCACGUCGCAGCCCCUGUCAGAUUCUGGUGAAUCUGCGAAUUCCGCUGUAUAUCUC [A20U U69C] | 0.15
UAACAGGGGGCCACAGCAGUAGCGUUCACGUCGCAGCCCCUGUCAGAUUCUGGUGAAUCUGCGAAUUCAGCUGUAUAUCUC [A20U U69A] | 0.22
UAACAGGGGGCCACAGCAGUAGCGUUCACGUCGCAGCCCCUGUCAGAUUCUGGUGAAUCUGCGAAUACUGCUGUAUAUCUC [A20U U67A] | 1.16
UAACAGGGGGCCACAGCAGUAGCGUUCACGUCGCAGCCCCUGUCAGAUUCUGGUGAAUCUGCGAAUGCUGCUGUAUAUCUC [A20U U67G] | 0.44
UAACAGGGGGCCACAGCAGUAGCGUUCACGUCGCAGCCCCUGUCAGAUUCUGGUGAAUCUGCGAAUCCUGCUGUAUAUCUC [A20U U67C] | 0.22
UAACAGGGGGCCACAGCAGUAGCGGUCACGUCGCAGCCCCUGUCAGAUUCUGGUGAAUCUGCGAAUUCUGCUGUAUAUCUC [A20U U25G] | 0.15
UAACAGGGGGCCACAGCAGUAGCGAUCACGUCGCAGCCCCUGUCAGAUUCUGGUGAAUCUGCGAAUUCUGCUGUAUAUCUC [A20U U25A] | 0.26
UAACAGGGGGCCACAGCAGUAGCGCUCACGUCGCAGCCCCUGUCAGAUUCUGGUGAAUCUGCGAAUUCUGCUGUAUAUCUC [A20U U25C] | 0.31
UAACAGGGGGCCACAGCAGUAGCGUUCACGUCGCAGCCCCUGUCAGAUUCUGGUGAAUCUGCGAAUUCUGCUGUAUAUCCC [A20U U80C] | 0.37
UAACAGGGGGCCACAGCAGUAGCGUUCACGUCGCAGCCCCUGUCAGAUUCUGGUGAAUCUGCGAAUUCUGCUGUAUAUCAC [A20U U80A] | 0.45
UAACAGGGGGCCACAGCAGUAGCGUUCACGUCGCAGCCCCUGUCAGAUUCUGGUGAAUCUGCAAAUUCUGCUGUAUAUCUC [A20U G63A] | 0.19
UAACAGGGGGCCACAGCAGUAGCGUUCACGUCGCAGCCCCUGUCAGAUUCUGGCGAAUCUGCGAAUUCUGCUGUAUAUCUC [A20U U54C] | 0.31
UAACAGGGGGCCACAGCAGUAGCGUUCACGUCGCAGCCCCUGUCAGAUUCUGGAGAAUCUGCGAAUUCUGCUGUAUAUCUC [A20U U54A] | 0.29
UAACAGGGGGCCACAGCAGUAGCGUUCACGUCGCAGCCCCUGUCAGAUUCUGGGGAAUCUGCGAAUUCUGCUGUAUAUCUC [A20U U54G] | 0.26
UAACAGGGGGCCACAGCAGUAGCGUUCACGUCGCAGCCCCUGUCAGAUUCUUGUGAAUCUGCGAAUUCUGCUGUAUAUCUC [A20U G52U] | 0.38
UAACAGGGGGCCACAGCAGUAGCGUUCACGUCGCAGCCCCUGUCAGAUUCUCGUGAAUCUGCGAAUUCUGCUGUAUAUCUC [A20U G52C] | 0.27
UAACAGGGGGCCACAGCAGUAGCGUUCACGUCGCAGCCCCUGUCAGAUUCUAGUGAAUCUGCGAAUUCUGCUGUAUAUCUC [A20U G52A] | 0.41
UAACAGGGGGCCACAGCAGUAGCGUUCACGUCGCAGCCCCUGUCAGAUACUGGUGAAUCUGCGAAUUCUGCUGUAUAUCUC [A20U U49A] | 0.2
UAACAGGGGGCCACAGCAGUAGCGUUCACGUCGCAGCCCCUGUCAGAUCCUGGUGAAUCUGCGAAUUCUGCUGUAUAUCUC [A20U U49C] | 0.3
